The results in this text go back to US20200339648A1 (University of Washington, published 2020).

For orientation: Kd means the concentration at which binding is half-saturated.

The target in experiment [1] is human IL-2Rβγc on human cells (YT-1 NK cells) (human) (UniProt P14784). The experiment can be described thus: cell-based or functional assay.
The target in experiment [2] is T1, human IL-2 receptor β subunit (hIL-2Rβ) (human, UniProt P14784 27-240, biotin on the C-terminal biotin acceptor peptide).
T1 construct: Biotinylated and immobilised on streptavidin; also called HsIL-2Rβ; human IL-2Rβ
T1 sequence: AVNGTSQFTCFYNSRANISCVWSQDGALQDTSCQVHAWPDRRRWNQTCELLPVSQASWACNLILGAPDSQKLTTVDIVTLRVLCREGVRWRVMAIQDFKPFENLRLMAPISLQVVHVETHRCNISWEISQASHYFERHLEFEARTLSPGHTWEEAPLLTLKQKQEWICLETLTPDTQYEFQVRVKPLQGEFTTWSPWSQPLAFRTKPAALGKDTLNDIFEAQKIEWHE
The experiment can be described thus: SPR, equilibrium titration; biotinylated IL-2Rβ on streptavidin chip. Here is the method:
(§1) Less than 100 response units (RU) of each ligand was immobilized to minimize mass transfer effects. […] Surface regeneration for all interactions was conducted using 15 s exposure to 1 M MgCl2 in 10 mM sodium acetate pH 5.5. SPR experiments were carried out in HBS-P+ buffer (GE Healthcare) supplemented with 0.2% bovine serum albumin (BSA) at 25° C. and all binding studies were performed at a flow rate of […] to prevent analyte rebinding. Data was visualized and processed using the Biacore T100 evaluation software version 2.0 (GE Healthcare). Equilibrium titration curve fitting and equilibrium binding dissociation (KD) value determination was implemented using GraphPad Prism assuming all binding interactions to be first order. Biolayer interferometry: binding data were collected in a Octet RED96 (ForteBio, Menlo Park, Calif.) and processed using the instrument's integrated software using a 1:1 binding model. […] Analyte proteins were diluted from concentrated stocks into binding buffer. After baseline measurement in binding buffer alone, the binding kinetics were monitored by dipping the biosensors in wells containing 100 nM of the designed protein (association) and then dipping the sensors back into baseline wells (dissociation).

For experiment [3], the target named is T2, mouse IL-2 receptor β subunit (mIL-2Rβ) (mouse, UniProt P16297 27-240, biotin on the C-terminal biotin acceptor peptide).
T2 construct: extracellular domain; Biotinylated form for SPR; also called MmIL-2Rβ; murine IL-2Rβ
T2 sequence: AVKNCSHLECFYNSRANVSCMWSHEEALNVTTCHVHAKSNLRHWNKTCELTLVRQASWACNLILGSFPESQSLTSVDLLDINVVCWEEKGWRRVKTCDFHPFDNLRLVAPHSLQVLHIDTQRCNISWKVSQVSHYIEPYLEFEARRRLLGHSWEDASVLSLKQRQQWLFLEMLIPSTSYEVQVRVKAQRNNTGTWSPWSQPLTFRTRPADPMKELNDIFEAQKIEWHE
The description is as above. As for the experimental part:
as §1

Experiment [4] concerns the target human IL-2 receptor βγc heterodimer (hIL-2Rβγc), soluble (human) (UniProt P14784). The experiment can be described thus: SPR, equilibrium titration; IL-2Rγ on streptavidin chip, saturating IL-2Rβ in solution.
For experiment [5], the target named is mouse IL-2 receptor βγc heterodimer (mIL-2Rβγc), soluble (mouse) (UniProt P16297). Described as above.
Experiment [6] deals with T3, mouse IL-2 receptor βγc heterodimer (mIL-2Rβγc), soluble (mouse, UniProt P16297 27-240; P34902 23-263, biotin on the C-terminal biotin acceptor peptide).
T3 construct: extracellular domain; In SPR and BLI the gamma chain is on the chip or sensor and mIL-2Rβ is added in solution at saturating concentration (5 uM in SPR); also called MmIL-2Rβγc; mIL-2Rβνc
T3 sequence 1: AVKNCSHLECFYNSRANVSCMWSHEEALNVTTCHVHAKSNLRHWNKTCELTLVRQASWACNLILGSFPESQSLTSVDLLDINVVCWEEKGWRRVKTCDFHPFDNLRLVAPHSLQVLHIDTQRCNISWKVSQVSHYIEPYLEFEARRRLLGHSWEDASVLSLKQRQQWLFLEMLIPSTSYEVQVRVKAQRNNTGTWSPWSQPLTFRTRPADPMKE
T3 sequence 2: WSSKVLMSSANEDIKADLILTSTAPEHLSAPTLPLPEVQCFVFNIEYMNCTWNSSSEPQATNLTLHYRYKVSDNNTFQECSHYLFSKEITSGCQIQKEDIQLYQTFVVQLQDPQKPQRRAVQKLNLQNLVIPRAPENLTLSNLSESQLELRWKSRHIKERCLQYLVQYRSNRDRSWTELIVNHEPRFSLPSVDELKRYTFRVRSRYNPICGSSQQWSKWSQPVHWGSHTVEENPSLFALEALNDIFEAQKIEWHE
The experiment can be described thus: biolayer interferometry; biotin-mIL2Gamma on streptavidin biosensor, MSA-Neo2 titrated from 729 to 1 nM with saturating mIL2Beta. In general terms: BLI is a label-free optical method that tracks binding on a fibre tip over time.

Experiment [7] has as its target T4, mouse IL-2Rβγc on murine cells (CTLL-2 T cells, primary CD4+ T cells) (mouse, UniProt P16297 27-539; P34902 23-369).
T4 sequence (looked up) 1: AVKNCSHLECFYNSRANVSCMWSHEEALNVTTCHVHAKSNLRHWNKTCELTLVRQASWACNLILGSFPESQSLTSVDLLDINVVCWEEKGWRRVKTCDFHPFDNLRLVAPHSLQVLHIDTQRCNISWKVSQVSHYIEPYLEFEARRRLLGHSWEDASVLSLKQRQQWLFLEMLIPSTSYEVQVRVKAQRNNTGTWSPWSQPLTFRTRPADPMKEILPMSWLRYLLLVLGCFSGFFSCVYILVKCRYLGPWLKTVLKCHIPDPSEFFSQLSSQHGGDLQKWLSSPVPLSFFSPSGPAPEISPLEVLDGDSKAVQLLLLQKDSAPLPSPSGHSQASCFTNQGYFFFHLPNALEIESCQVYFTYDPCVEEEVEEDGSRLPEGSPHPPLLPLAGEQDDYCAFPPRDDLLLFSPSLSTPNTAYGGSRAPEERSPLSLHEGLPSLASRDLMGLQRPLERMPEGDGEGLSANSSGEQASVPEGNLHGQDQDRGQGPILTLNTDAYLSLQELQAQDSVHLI
T4 sequence (looked up) 2: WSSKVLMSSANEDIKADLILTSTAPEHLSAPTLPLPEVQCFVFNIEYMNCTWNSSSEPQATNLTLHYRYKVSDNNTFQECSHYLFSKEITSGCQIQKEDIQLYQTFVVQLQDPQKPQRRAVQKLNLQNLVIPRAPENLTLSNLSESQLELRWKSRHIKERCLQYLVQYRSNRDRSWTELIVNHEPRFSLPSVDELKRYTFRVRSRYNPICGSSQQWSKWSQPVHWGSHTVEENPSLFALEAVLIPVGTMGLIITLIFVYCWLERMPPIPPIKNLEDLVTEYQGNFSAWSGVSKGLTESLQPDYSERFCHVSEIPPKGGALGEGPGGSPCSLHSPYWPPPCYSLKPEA
As to the kind of experiment: cell-based or functional assay.

Experiment [8] has as its target T4, mouse IL-2Rβγc on murine cells (CTLL-2 …). The experiment can be described thus: cell-based or functional assay. The source holds these as a separate data set.
The target in experiment [9] is T5, human IL-2 receptor α subunit (hIL-2Rα) (human, UniProt P01589 22-238, biotin on the C-terminal biotin acceptor peptide).
T5 construct: range 1-217; Biotinylated and immobilised on streptavidin; also called human IL-2Rα; CD25
T5 sequence: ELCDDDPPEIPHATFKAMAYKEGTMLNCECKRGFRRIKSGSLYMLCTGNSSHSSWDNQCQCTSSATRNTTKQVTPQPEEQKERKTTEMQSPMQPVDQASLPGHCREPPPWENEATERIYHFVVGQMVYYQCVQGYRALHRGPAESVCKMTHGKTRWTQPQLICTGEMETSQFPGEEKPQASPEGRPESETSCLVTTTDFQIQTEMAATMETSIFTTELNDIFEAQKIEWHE
The experiment can be described thus: SPR, biotinylated receptor on streptavidin chip. As for the experimental part: as §1
On the technique in general: SPR reads the build-up and loss of mass on a sensor chip optically.

Experiment [10] has as its target T6, mouse IL-2 receptor α subunit (mIL-2Rα) (mouse, UniProt P01590 22-236, biotin on the C-terminal biotin acceptor peptide).
T6 construct: extracellular domain; Biotinylated and immobilised on streptavidin; also called murine IL-2Rα
T6 sequence: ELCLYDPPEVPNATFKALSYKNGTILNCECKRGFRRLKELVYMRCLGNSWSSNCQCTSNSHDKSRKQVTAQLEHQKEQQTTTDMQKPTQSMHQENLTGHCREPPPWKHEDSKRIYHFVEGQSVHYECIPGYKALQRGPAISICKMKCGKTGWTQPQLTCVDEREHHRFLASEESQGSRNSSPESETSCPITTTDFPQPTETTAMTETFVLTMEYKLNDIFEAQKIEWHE
As to the kind of experiment: SPR, biotinylated receptor on streptavidin chip. Here is the method:
as §1

Experiment [11] concerns the target T3, mouse IL-2 receptor βγc heterodimer …. The experiment can be described thus: SPR, equilibrium titration; IL-2Rγ on streptavidin chip, saturating IL-2Rβ in solution. Here is the method:
as §1

The target of experiment [12] is T7, fluorescently labeled chimeric hIL-2Rβγc (human, UniProt P14784 27-240; P31785 23-254).
T7 construct: How beta and gamma are joined and labeled is not described; also called fluorescently-tagged beta-gamma chimeric IL-2 receptor; chimeric ILRβγc
T7 sequence (looked up) 1: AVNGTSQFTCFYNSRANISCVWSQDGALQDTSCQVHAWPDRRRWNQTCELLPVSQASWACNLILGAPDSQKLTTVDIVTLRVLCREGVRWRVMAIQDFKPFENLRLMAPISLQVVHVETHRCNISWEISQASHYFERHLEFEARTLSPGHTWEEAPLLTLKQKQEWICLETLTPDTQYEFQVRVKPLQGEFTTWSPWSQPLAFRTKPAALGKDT
T7 sequence (looked up) 2: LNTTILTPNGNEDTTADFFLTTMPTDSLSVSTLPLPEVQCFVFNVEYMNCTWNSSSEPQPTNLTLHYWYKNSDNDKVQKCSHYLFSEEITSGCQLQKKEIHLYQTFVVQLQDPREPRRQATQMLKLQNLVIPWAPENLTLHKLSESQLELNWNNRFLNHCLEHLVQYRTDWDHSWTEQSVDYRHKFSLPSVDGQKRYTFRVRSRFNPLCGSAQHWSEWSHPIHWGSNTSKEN
The experiment can be described thus: yeast display, flow cytometry. (In general: A flow cytometer gives signals particle by particle.)

The molecule Super-2/Superkine (PDB: 3QAZ) (ligand) showed an EC50 (CD25-) pSTAT5p, human NK (YT, CD25-) cells in [1] of 70 pM. The Kd in experiment [2] came out at 0.002 µM; in experiment [3], 0.214 µM; in experiment [4] it was 0.301 µM; in experiment [5], 0.312 µM.

B1: Mouse Serum Albumin (MSA) fusion to Neoleukin-2/15 (other)
chain: GSDGGSHHHHHHGSGSENLYFQGSGEAHKSEIAHRYNDLGEQHFKGLVLIAFSQYLQKCSYDEHAKLVQEVTDFAKTCVADESAANCDKSLHTLFGDKLCAIPNLRENYGELADCCTKQEPERNECFLQHKDDNPSLPPFERPEAEAMCTSFKENPTTFMGHYLHEVARRHPYFYAPELLYYAEQYNEILTQCCAEADKESCLTPKLDGVKEKALVSSVRQRMKCSSMQKFGERAFKAWAVARLSQTFPNADFAEITKLATDLTKVNKECCHGDLLECADDRAELAKYMCENQATISSKLQTCCDKPLLKKAHCLSEVEHDTMPADLPAIAADFVEDQEVCKNYAEAKDVFLGTFLYEYSRRHPDYSVSLLLRLAKKYEATLEKCCAEANPPACYGTVLAEFQPLVEEPKNLVKTNCDLYEKLGEYGFQNAILVRYTQKAPQVSTPTLVEAARNLGRVGTKCCTLPEDQRLPCVEDYLSAILNRVCLLHEKTPVSEHVTKCCSGSLVERRPCFSALTVDETYVPKEFKAETFTFHSDICTLPEKEKQIKKQTALAELVKHKPKATAEQLKTVMDDFAQFLDTCCKAADKDTCFSTEGPNLVTRCKDALAGGGSGGSGGGSGGSGSGPKKKIQLHAEHALYDALMILNIVKTNSPPAEEKLEDYAFNFELILEEIARLFESGDQKDEAEKAKRMKEWMKRIKTTASEDEQEEMANAIITILQSWIFS
notes: also called MSA-Neo2
With B1, in [6], the Kd is 0.0335 µM.

B2: Neoleukin-2/15 (designed binder)
chain: PKKKIQLHAEHALYDALMILNIVKTNSPPAEEKLEDYAFNFELILEEIARLFESGDQKDEAEKAKRMKEWMKRIKTTASEDEQEEMANAIITILQSWIFS
notes: 100 residues; also called Neo-2/15; Neolukin-2/15
B2: in experiment [7], the “EC50 of pSTAT5 signaling, murine CD4+ primary cells ex vivo, CD25+” value is approximately 24 pM. Further, the “EC50 of pSTAT5 signaling, murine CD4+ primary cells ex vivo, CD25-” value in [7] is approximately 129 pM. In addition, the “EC50 (CD25+) pSTAT5, murine T (CTLL-2, CD25+) cells” value in [8] was determined as 70 pM. Further, the binding result in experiment [9] and in [10] was “no binding” each time. Moreover, the Kd in [3] worked out at 0.0161 µM; in experiment [11], 0.0384 µM.

B3: G1_neo2_35 (designed binder)
chain: STKKWQLQAEHALLDWQMALNKSPEPNENLNRAITAAQSWISTGKIDCDKAEDIRRNSDQARREAEKRGIDVRDLISNAQVILLEAC
B3: in [12], the binding result is recorded as “no binding (tested: 2 nM)”.
